From the DeepSol protein solubility set

Assay: soluble on expression in E. coli; label from the status in PepcDB or PDB records

Sequence	soluble on expression in E. coli
KGMIRPRGLNQQRYVKEVLSNDINFGIGPAGTGKTYLAVACAVDALEREQIRRILLVRPAVEAGEKLGFLPGDLAQKIDPYLRPLYDALYEMLGFEYVAKLIEKQVIEVAPLAYMRGRTLNNSFIILDESQNTTVEQMKMFLTRIGFGSTAVITGDITQVDLPKGTRSGLTHVIDVLKDVPGISFTHFKPKDVVRHPLVQRIVEAYERFDDQLSDGPSGNNG	soluble
KGMTPPKTVNFKMKGVADAAFSHEFHLGMYKCNECHTKLFAYKAGAKRFTMADMDKGKSCGACHNGKDAFSSASDCGKCHPG	soluble
KILLKTSENGLDLEKPYYQAVIRRWQNKITDADTRRETVSAVSPKIILNDAPKWAVMLETEWQDGEWFEGRLAQEWLDKGVATNREQVAALETELKQKPAQLLIGVRAQTVPDRGVLRQIVRLSEAAQGGAVVQLLAEQGLSDDLSEKLEHWRNALAECGAAWLEPDRAAQEGRLKDQ	not soluble
KMLDEKFYSKLLGEELDLIICLPPDFSPLYKYPLFIVQDGKDYFQFGKLARHSEELAVNEQIQKAIFIGIPYKTVMDRREKYHPDGEQNEAYIRFLAFELVPYLEERFPSFQMPTSRFL	not soluble
KMNRKPTTKIISICLKKATGHVAEALGVEKATEVIVIERLRSLDNMPAIFEIDYFRKEDQFMLDLELTDTSLLDILRQYRGVIASYFDNIIEIALADEKLAEALAISEEEALVKINQTVVDNDNQILYFNEQYILSESYKVAIRSYNK	soluble
KMPISAGVTVERKLNDYLGIETGLLYSNLRSEGQHLHYLGIPLKANITLMDTKKIDLYATVGGVADKCIAGAPDNSFKEEPIQLAVTAGIGITYKINDRLAVFAEPG	not soluble
KSVVIGKDALIGWHGGANQSDEMWDQSVPSQYEKQFYRYLTRLRIKEAEFYNKVGVDPNITVYGHTRTNTCQRSTLANGWYYTESDMRHMGIKNLTVQGELLNTLNYNNSEINSCLMPQIFN	not soluble
KTRPYMEEVLYVWKLKQLHNKIFRKLKSIKAAASNDDVKALTTLKFYYTTQRQVFELDNNTLTMSSVNKELEAIDQIEVDKSLHLDIASFEEGWIDTY	soluble
KTSDANETEDHLESLICKVGEKSACSLESNLEGLAGVLEADLPNYKSKILRLLCTVARLLPEKLTIYTTLVGLLNARNYNFGGEFVEAMIRQLKESLKANNYNEAVYLVRFLSDLVNCHVIAAPSMVAMFENFVSVTQEEDVPQVRRDWYVYAFLSSLPWVGKELYEKKDAEMDRIFANTESYLKRRQKTHVPMLQVWTADKPHPQEEYLDCLWAQIQKLKKDRWQERHILRPYLAFDSILCEALQHNLPPFTPPPHTEDSVYPMPRVIFRMFDYTDDPEGPVMPGSHSVERFVIEENLHCIIKSHWKERKTCAAQLVSYPGKNKIPLNYHIVEVIFAELFQLPAPPHIDVMYTTLLIELCKLQPGSLPQVLAQATEMLYMRLDTMNTTCVDRFINWFSHHLSNFQFRWSWEDWSDCLSQDPESPKPKFVREVLEKCMRLSYHQRILDIVPPTFSALCPSNPTCIYKYGDESSNSLPGHSVALCLAVAFKSKATNDEIFSILKDVPNPNQDDDDDEGFSFNPLKIEVFVQTLLHLAAKSFSHSFSALAKFHEVFKTLAESDEGKLHVLRVMFEVWRNHPQMIAVLVDKMIRTQIVDCAAVANWIFSSELSRDFTRLFVWEILHSTIRKMNKHVGAQSEQKNLFLVIFQRFIMILTEHLVRCETDGTSVLTPWYKNCIERLQQIFLQHHQIIQQYMVTLENLLFTAELDPHILAVFQQFCALQA	soluble
KTVINVVLQEDTQILDEVVVTALGLKREQKALGYAVTEVKGDDLKAANTISPVAALQGKVAGVEIRQSDGGMFGATKIQIRGASTLKGNNQPIYVIDGVILDNSTSGNTTMDWDAGNNNANDYGNELKNLNPDDFETVSVLKGAAATALYGSRGLNGAVVITTKSGKG	not soluble
KTVTPEEKKLVAEKHVDELVQKALVALEEMRKLDQEQVDYIVAKASVAALDAHGELALHAFEETGRGVFEDKATKNLFACEHVVNNMRHTKTVGVIEEDDVTGLTLIAEPVGVVCGITPTTNPTSTAIFKSLISLKTRNPIVFAFHPSAQESSAHAARIVRDAAIAAGAPENCVQWITQPSMEATSALMNHEGVATILATGGNAMVKAAYSCGKPALGVGAGNVPAYVEKSANIRQAAHDIVMSKSFDNGMVCASE	not soluble
KTYGPLKNLPHLEKEQLSQSLWRIADELGPIFRFDFPGVSSVFVSGHNLVAEVCDEKRFDKNLGKGLQKVREFGGDGLFTSWTHEPNWQKAHRILLPSFSQKAMKGYHSMMLDIATQLIQKWSRLNPNEEIDVADDMTRLTLDTIGLCGFNYRFNSFYRDSQHPFITSMLRALKEAMNQSKRLGLQDKMMVKTKLQFQKDIEVMNSLVDRMIAERKANPDENIKDLLSLMLYAKDPVTGETLDDENIRYQIITFLIAGHETTSGLLSFAIYCLLTHPEKLKKAQEEADRVLTDDTPEYKQIQQLKYIRMVLNETLRLYPTAPAFSLYAKEDTVLGGEYPISKGQPVTVLIPKLHRDQNAWGPDAEDFRPERFEDPSSIPHHAYKPFGNGQRACIGMQFALQEATMVLGLVLKHFELINHTGYELKIKEALTIKPDDFKITVKPRKTAAINVQRKEQADIKAETKPKETKPKHGTPLLVLFGSNLGTAEGIAGELAAQGRQMGFTAETAPLDDYIGKLPEEGAVVIVTASYNGAPPDNAAGFVEWLKELEEGQLKGVSYAVFGCGNRSWASTYQRIPRLIDDMMKAKGASRLTAIGEGDAADDFESHRESWENRFWKETMDAFDINEIAQKEDRPSLSITFLSEATETPVAKAYGAFEGIVLENRELQTAASTRSTRHIELEIPAGKTYKEGDHIGILPKNSRELVQRVLSRFGLQSNHVIKVSGSAHMAHLPMDRPIKVVDLLSSYVELQEPASRLQLRELASYTVCPPHQKELEQLVSDDGIYKEQVLAKRLTMLDFLEDYPACEMPFERFLALLPSLKPRYYSISSSPKVHANIVSMTVGVVKASAWSGRGEYRGVASNYLAELNTGDAAACFIRTPQSGFQMPNDPETPMIMVGPGTGIAPFRGFIQARSVLKKEGSTLGEALLYFGCRRPDHDDLYREELDQAEQDGLVTIRRCYSRVENEPKGYVQHLLKQDTQKLMTLIEKGAHIYVCGDGSQMAPDVERTLRLAYEAEKAASQEESAVWLQKLQDQRRYVKDVW	not soluble
KVDKKTYKNLIVELQQRMREIQFALYERKIPLVLVFEGMDAAGKGGNIKRIREKLDPTGYEVNGISAPTDVELKHHYLWRFAKKMPKSGHIEIFDRSWYGRVLVERVEGFASQNEWQRASDEINQFEKMWTDEGTIILKFFLCLDKDEQLKRFKDRENNPDKQWKITEEDWRNREKWDEYLEASHDMIESTNTSYAPWYIVPADHKKTSRIEVLKTIIRKCEEVLWGVKTY	not soluble
KVISPTYQASTQVLVHESDGEENSNLSDIQRNLQYSSTFQSIMKSTALMEEVKAELHLSESASSLKGKVVTSSENESEIINVAVQDHDPAKAAEIANTLVNKFEKEVDERMNVQGVHILSEAKASESPMIKPARLRNM	not soluble
KYQLMANDPVQYKALGKMLGSMGRSDPNEIAPLYFSELMAALKKCATRRTHTNVLQHLCGYLKQTISAEDKQEIQEVIGQYHQGIVPLIVPLTLLKHHFRQHPDPYVALQVYMQPHP	not soluble
LDQILRATVEEVRAFLGTDRVKVYRFDPEGHGTVVAEARGGERLPSLLGLTFPAGDIPEEARRLFRLAQVRVIVDVEAQSRSISQPESWGLSARVPLGEPLQRPVDPCHVHYLKSMGVASSLVVPLMHHQELWGLLVSHHAEPRPYSQEELQVVQLLADQVSIAIAQAELSL	soluble
LEANEGSKTLQRNRKMAMGRKKFNMDPKKGIQFLVENELLQNTPEEIARFLYKGEGLNKTAIGDYLGEREELNLAVLHAFVDLHEFTDLNLVQALRQFLWSFRLPGEAQKIDRMMEAFAQRYCLCNPGVFQSTDTCYVLSYSVIMLNTDLHNPNVRDKMGLERFVAMNRGINEGGDLPEELLRNLYDSIRNEPFKIPEDDGND	soluble
LEILRKNRINEPCIKLNTHSIANKIYATENYIIGIPTDHPDEISDAFTKSVAALLAKSNGIRTPELICFDDSYTIKALDKKLHKIGKAEDGACNLILDMLRLLRLAKDLF	not soluble
